Data on six molecules can be found in patent publication US20080311034A1 (published 2008).

Assay [1] has as its target T1, recombinant human His-tagged FcγRIIIa (extracellular domain made at Centocor) (human, UniProt P08637 17-208).
T1 construct: extracellular domain; also called CD16a; recombinant, soluble, human FcγRIIIa
Description: ELISA. Here is the method: (§1) FcγRI (CD64) ELISA —50 μl of a 1 μg/ml solution of recombinant human His-tagged FcγRI (extracellular domain, R&D Systems #1257-FC-050) in ELISA buffer (PBS, pH 7.4, 4 mg/ml BSA, 0.01% Tween-20) was added to each well of HisGrab 96 well plates (Pierce #15142) (Powers G., Notebook 9006, pp. 166-168, 180-181). The plate was incubated with shaking for 3 hours. The plates were washed 3× with 300 μl of wash buffer (PBS, 0.01% Tween-20) on a plate washer. Serial dilutions of the CNTO860 antibody Fc-variant samples were made in ELISA buffer and 50 μl per well of each titration were added in duplicate to the FcγRI-coated plates. The plates were incubated with shaking for 1 hour. The plates were washed 3× with 300 μl of wash buffer on a plate washer. 50 μl of a 1:10,000 dilution of HRP-labeled goat F(ab′)₂ anti-human IgG F(ab′)₂ (Jackson Immunoresearch # 109-036-097) in ELISA buffer was added to each well. The plates were incubated with shaking for 30 minutes. The plates were washed 3× with 300 μl of wash buffer on the plate washer. 50 μl per well TMB substrate (RDI #RDI-TMBSU-1L) was added to each well and developed for 5 minutes. The reaction was stopped by adding 100 μl 0.2 N sulfuric acid. The plates were read at OD450 on an Envision plate reader.
(§2) FcγRIIIa (CD16a) ELISA—A human FcγRIIIa binding assay was done in ELISA format similar to the assay for FcγRI above. 50 μl of a 2 μg/ml solution of recombinant human His-tagged FcγRIIIa (extracellular domain made at Centocor) in ELISA buffer (PBS, 4 mg/ml BSA, 0.01% Tween-20) was added to each well of HisGrab 96 well plates (Pierce #15142) (Powers G., Notebook 10378, 19-23). The plate was incubated for 3 hours at room temp. The plates were blocked with 200 μl of Starting Block (Pierce #15142) for 30 min, and then washed 3× with 300 μl of wash buffer (PBS, 0.01% Tween-20) on a plate washer. Serial dilutions of the CNTO 860 test samples were made in Starting Block buffer and 50 μl per well of each titration were added in duplicate to the FcγRIIIa-coated plates. The plates were incubated for 1 hour. The plates were washed 3× with 300 μl of wash buffer on a plate washer. 50 μl of a 1:10,000 dilution of HRP-labeled goat F(ab′)2 anti-human IgG F(ab′)2 (Jackson Immunoresearch # 109-036-097) in Starting Block buffer was added to each well. The plates were incubated for 30 minutes.
On the technique in general: An ELISA detects its analyte on a solid surface through an enzyme-linked reagent.

Assay [2] concerns the target FcγRIIIa on NK cells of human PBMC (human, UniProt P08637 17-254). Briefly: cell-based or functional assay.
In assay [3] the target is T2, recombinant human His-tagged FcγRI (extracellular domain, R&D Systems #1257-FC-050) (human, UniProt P12314 16-292).
T2 construct: extracellular domain; Bought; also called CD64; recombinant, soluble, human FcγRI
Description: ELISA. The protocol: as §1, §2

Assay [4] addresses T3, recombinant human His-tagged FcγRIIa (R&D Systems #1330-CD-050) (human, UniProt P12318 36-218, limits assumed).
T3 construct: Bought; also called CD32a; recombinant, soluble, human FcγRIIa
T3 sequence (looked up): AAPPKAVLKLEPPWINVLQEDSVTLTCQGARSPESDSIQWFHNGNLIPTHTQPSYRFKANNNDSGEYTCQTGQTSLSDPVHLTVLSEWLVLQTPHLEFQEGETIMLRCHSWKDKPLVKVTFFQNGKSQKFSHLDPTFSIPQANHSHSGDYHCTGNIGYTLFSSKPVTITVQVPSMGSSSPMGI
Briefly: AlphaScreen. Here is the method: (§3) FcγRIIa (CD32a) AlphaScreen—Nickel acceptor beads (Perkin Elmer #6760619C) were diluted 1:50 in assay buffer (PBS, pH 7.4, 4 mg/ml BSA, 0.01% Tween-20), and 27.5 μl were added to each well of a Nunc V-bottom polypropylene plate (VWR # 62409-108) (Powers G., Notebook 9006, pp. 169-175, 182-185). A 2.0 μg/ml solution of recombinant human His-tagged FcγRIIa (R&D Systems #1330-CD-050) was prepared in assay buffer and 27.5 μl added to each well of a separate Nunc V bottom polypropylene plate. Titrations of test Abs were prepared in the Nunc V bottom polypropylene plate starting at 30 μg/ml. A 2 μg/ml solution of biotinylated goat F(ab′)₂ anti-human IgG F(ab′)₂ (Jackson Immunoresearch #109-066-097) was prepared in assay buffer and 27.5 μl added to each well of another Nunc V bottom polypropylene plate. A 1:50 dilution of streptavidin donor beads (PerkinElmer # 6760002) was prepared in assay buffer and 27.5 μl added to each well of another Nunc V bottom polypropylene plate. A volume of 5 μl of each reagent was added to the corresponding quadrants of a low-volume, non-binding white 384-well plate (Corning # 3673) in the following order: acceptor beads, FcγRIIa, test Ab, biotinylated anti-human IgG F(ab′)₂, and streptavidin donor beads. The plates were incubated for 30 minutes with shaking and the O.D.s determined using an Envision plate reader.
(§4) FcγRIIb (CD32b) AlphaScreen—The assay was performed as described above for FcγRIIa except that FcγRIIa was replaced with FcγRIIb (R&D Systems #1875-CD-050).
A general note: Bead proximity is the source of the signal in Alpha formats.

Assay [5] has as its target T4, recombinant human FcγRIIb (R&D Systems #1875-CD-050) (human, UniProt P31994 46-217, limits assumed).
T4 construct: Bought; also called CD32b; recombinant, soluble, human FcγRIIb
T4 sequence (looked up): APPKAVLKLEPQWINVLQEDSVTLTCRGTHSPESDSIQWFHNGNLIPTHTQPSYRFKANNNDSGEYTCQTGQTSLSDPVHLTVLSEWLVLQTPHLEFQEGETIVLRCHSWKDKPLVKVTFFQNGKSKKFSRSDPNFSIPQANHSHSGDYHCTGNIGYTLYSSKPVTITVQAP
Description: AlphaScreen. Here is the method:
as §3, §4

Where only a bound is given, the exact number is not on record here.

T1 sequence (P08637 17-208): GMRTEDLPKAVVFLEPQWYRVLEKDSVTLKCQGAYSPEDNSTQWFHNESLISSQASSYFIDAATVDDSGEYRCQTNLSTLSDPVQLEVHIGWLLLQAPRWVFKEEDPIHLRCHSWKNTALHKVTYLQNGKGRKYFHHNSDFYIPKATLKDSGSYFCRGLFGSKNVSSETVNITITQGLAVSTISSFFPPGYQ
FcγRIIIa on NK cells of human PBMC, sequence (P08637 17-254): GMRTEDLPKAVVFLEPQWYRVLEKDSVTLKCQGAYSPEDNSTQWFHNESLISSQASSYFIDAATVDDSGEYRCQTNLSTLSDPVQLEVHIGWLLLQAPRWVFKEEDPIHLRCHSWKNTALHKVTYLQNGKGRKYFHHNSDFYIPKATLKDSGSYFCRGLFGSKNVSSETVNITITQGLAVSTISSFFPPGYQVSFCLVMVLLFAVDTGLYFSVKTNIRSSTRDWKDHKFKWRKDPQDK
T2 sequence (P12314 16-292): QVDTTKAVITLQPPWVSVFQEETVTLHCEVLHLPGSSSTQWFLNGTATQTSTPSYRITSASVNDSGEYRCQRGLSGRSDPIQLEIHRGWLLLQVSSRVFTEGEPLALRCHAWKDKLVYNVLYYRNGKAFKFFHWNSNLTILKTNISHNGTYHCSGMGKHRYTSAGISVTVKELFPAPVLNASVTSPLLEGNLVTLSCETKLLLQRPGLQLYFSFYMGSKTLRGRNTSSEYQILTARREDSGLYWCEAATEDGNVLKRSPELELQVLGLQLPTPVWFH

B1: CHO-CNTO 860 I332E (antibody)
heavy: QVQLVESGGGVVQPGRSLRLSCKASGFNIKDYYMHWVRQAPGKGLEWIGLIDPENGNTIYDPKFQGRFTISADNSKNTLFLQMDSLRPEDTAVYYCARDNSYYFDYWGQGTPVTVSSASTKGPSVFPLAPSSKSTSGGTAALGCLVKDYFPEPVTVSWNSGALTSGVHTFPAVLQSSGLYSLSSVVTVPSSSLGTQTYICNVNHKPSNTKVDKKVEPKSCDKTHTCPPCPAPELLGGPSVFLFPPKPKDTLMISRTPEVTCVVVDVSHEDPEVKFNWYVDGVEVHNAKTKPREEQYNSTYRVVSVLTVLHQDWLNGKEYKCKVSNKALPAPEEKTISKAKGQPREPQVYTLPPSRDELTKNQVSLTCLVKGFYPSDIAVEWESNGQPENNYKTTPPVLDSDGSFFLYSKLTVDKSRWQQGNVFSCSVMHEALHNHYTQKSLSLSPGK
light: DIQMTQSPSSLSASVGDRVTITCKASQDIRKYLNWYQQKPGKAPKLLIYYATSLADGVPSRFSGSGSGTDYTFTISSLQPEDIATYYCLQHGESPYTFGQGTKLEITRTVAAPSVFIFPPSDEQLKSGTASVVCLLNNFYPREAKVQWKVDNALQSGNSQESVTEQDSKDSTYSLSSTLTLSKADYEKHKVYACEVTHQGLSSPVTKSFNRGEC
modifications: N-linked glycan at Asn297 of the heavy chain (CHO-type, highly fucosylated); not carried by the letters
notes: IgG1/kappa Fc variant; transiently expressed in CHO cells (p4157/p4146); also called I332E (CHO cell-derived); I332E from CHO cells; copies: 2 + 2
Consider B1, for which the “fold better binding than WT from CHO cells” value in assay [1] was found to be 6 fold. Further, in assay [2], the “fold potency in ADCC against CHO-CNTO 860 WT” value is around 7 fold.

B2: YB2/0-CNTO 860 WT (antibody, human IgG1, kappa)
heavy: not shown
light: B1 light
modifications: Heavy chain N297 carries the YB2/0-type N-linked glycan (40-60% fucosylated); not carried by the letters.
notes: Anti-human tissue factor human IgG1/kappa; stably expressed in rat YB2/0 cells (p2401/p2402; YB2/0 Abs typically 40-60% fucosylated), purified by protein A; also called WT (YB2/0 cell-derived); WT from YB2/0 cells; copies: 2 + 2
Turning to B2, in assay [1], the “fold better binding than WT from CHO” value was around 3 fold.

B3: YB2/0-CNTO 860 A330I (antibody, IgG1)
heavy: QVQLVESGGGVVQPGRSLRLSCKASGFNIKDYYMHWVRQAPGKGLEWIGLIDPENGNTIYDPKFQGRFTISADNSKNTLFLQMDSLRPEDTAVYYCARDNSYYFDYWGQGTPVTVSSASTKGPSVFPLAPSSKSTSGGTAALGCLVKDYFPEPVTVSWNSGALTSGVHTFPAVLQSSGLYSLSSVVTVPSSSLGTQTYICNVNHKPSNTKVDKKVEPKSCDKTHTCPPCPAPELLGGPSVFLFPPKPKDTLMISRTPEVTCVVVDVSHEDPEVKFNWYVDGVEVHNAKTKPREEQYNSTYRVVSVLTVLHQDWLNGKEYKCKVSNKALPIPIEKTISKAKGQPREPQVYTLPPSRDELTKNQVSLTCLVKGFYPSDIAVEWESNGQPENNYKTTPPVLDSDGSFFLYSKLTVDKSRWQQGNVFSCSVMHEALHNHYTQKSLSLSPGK
light: B1 light
modifications: N-linked glycan at heavy chain Asn297 (YB2/0-type, low fucose); not carried by the letters
notes: IgG1/kappa Fc variant; stably expressed in YB2/0 cells (p4177/p2402); EU numbering; also called A330I (YB2/0 cell-derived); A330I mutant expressed in YB2/0 cells; copies: 2 + 2
For the molecule B3, the figures for the fold reduced binding in assay [3], in assay [4] and in assay [5] were below 2 fold, 8 fold and 500 fold, respectively.

B4: YB2/0-CNTO 860 A330I/I332E (antibody, human IgG1, kappa)
heavy: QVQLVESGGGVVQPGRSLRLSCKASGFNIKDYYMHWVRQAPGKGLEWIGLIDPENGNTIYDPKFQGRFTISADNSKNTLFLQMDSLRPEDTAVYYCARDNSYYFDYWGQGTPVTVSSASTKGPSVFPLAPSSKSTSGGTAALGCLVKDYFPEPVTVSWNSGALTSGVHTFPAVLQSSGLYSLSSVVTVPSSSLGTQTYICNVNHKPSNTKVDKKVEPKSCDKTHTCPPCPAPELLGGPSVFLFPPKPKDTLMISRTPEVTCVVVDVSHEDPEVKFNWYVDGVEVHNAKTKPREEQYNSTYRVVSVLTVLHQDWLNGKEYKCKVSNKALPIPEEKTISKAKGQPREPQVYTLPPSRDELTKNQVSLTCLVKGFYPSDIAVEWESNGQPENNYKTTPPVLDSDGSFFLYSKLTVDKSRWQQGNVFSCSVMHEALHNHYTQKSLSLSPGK
light: B1 light
modifications: N-linked glycan at heavy chain Asn297 (YB2/0-type, low fucose); not carried by the letters
notes: IgG1/kappa Fc variant; stably expressed in YB2/0 cells (p4178/p2402); EU numbering; also called A330I/I332E (YB2/0 cell-derived); A330I/I332E from YB2/0 cells; copies: 2 + 2
As for B4, the “fold better binding than WT from YB2/0 cells” value in assay [1] was 6 fold.

B5: YB2/0-CNTO 860 I332E (antibody, human IgG1, kappa)
heavy: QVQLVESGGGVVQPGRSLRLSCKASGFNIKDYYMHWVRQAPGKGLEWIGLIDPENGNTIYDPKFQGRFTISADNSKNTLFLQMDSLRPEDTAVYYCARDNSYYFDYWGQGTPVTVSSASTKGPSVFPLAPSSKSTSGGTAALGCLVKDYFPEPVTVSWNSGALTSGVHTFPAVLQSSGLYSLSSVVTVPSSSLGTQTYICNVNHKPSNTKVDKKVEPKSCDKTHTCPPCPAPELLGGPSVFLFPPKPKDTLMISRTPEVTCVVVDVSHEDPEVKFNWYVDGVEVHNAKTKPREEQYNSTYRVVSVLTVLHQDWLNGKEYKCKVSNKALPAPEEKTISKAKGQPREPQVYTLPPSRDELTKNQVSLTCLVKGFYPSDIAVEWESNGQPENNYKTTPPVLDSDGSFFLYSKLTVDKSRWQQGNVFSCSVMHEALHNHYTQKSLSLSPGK
light: B1 light
modifications: Heavy chain N297 carries the YB2/0-type low-fucose N-linked glycan; not carried by the letters.
notes: IgG1/kappa Fc variant; stably expressed in YB2/0 cells (p4148/p2402), low-fucose glycan; EU numbering; also called I332E (YB2/0 cell-derived); I332E from YB2/0 cells; copies: 2 + 2
B5: in assay [1], the “fold better binding than WT from CHO” value is around 30 fold and the “fold better binding than WT from YB2/0 cells” value is around 10 fold. In assay [2], the “fold change of the concentration for 25% lysis against WT CNTO860 from CHO host cells” value is around 100 fold and the “fold potency in ADCC against YB2/0-CNTO 860 WT” value is around 8 fold.

B6: CHO-CNTO 860 I332E/A330I (antibody, human IgG1, kappa)
heavy: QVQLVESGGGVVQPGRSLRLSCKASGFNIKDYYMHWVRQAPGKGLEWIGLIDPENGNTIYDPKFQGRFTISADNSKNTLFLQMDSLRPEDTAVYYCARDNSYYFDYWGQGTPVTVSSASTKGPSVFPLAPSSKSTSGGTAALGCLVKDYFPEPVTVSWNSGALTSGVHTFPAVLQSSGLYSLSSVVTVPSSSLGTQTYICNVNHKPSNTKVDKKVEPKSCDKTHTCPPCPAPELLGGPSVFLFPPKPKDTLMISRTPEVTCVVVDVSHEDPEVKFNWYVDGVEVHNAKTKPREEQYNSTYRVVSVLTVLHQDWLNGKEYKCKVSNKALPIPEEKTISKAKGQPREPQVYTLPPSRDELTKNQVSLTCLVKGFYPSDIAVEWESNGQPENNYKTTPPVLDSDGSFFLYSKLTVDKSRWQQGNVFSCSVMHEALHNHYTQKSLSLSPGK
light: B1 light
modifications: Heavy chain N297 carries the CHO-type N-linked glycan (about 95% fucosylated); not carried by the letters.
notes: IgG1/kappa Fc variant; transiently expressed in CHO cells (p4185/p4146); EU numbering; also called A330I/I332E (CHO cell-derived); A330I/I332E variant from CHO cells; copies: 2 + 2
Regarding B6, the “fold better binding than WT from CHO cells” value in assay [1] is around 8 fold.
